Measurements: patent US20130004947A1, “LUCIFERASE-LINKED ANALYSIS OF DNA-METHYLTRANSFERASE, PROTEIN METHYLTRANSFERASE AND S-ADENOSYLHOMOCYSTEINE AND USES THEREOF” (priority 2010, published 2013)
Several values for one entry are separate records, joined by “and”; a condition that tells them apart may be missing. Equal values may be shown once. Read-outs that look alike come from different tables or passages of the source.

How the values were obtained:
Assay type in all cases: biochemical
AdoMet and poly(dIdC) [1] = experiment: continuous luciferase-linked AdoHcy assay of DNMT kinetics; settings: for activity of catalytic domain alone (initial reaction rates): without DNMT3L, even at high substrate and enzyme concentrations
Procedure: AdoHcy to ATP Conversion Buffer. The 2×AdoHcy to ATP conversion buffer was prepared as previously described with minor modifications (17). In brief, 100 mL of buffer contained 100 mM Tris-acetate pH 7.7, 2 mM PEP, 2 mM sodium pyrophosphate, 2 mM PRPP, 15 mM (NH4)2SO4, 15 mM (NH4)2MoO4, and phosphatase inhibitors (Roche PhosSTOP, 10 tablets). A 4:1 cellulose:charcoal mixture was suspended in water and packed into a disposable mini-column to a bed volume of 1.5 mL, through which a 10 mL aliquot of the previously prepared buffer was passed at 2 mL/min to remove traces of adenine, AMP, and ATP. Treated buffer was filtered (0.2 μm) and stored in 1 mL aliquots at −80° C. Immediately prior to use, the 2× conversion buffer was completed by additions to give final concentrations of 10 mM MgSO4, 6 U APRTase, 18 U PPDK, and 250 nM MTAN and an increase in volume of 14 μL.
DNMT Kinetics using Continuous Luciferase Assay. Continuous assay buffer (2×) was prepared by adding 200 μl luciferin/luciferase (ATPlite) to 1 mL of the AdoHcy to ATP conversion buffer and warmed to room temperature. To 25 μL of this mixture was added AdoMet and the DNA substrate in DNMT assay buffer (25 mM HEPES pH 7.6, 50 mM KCl, 5% glycerol, 0.1% DTT) in a 96-well non-binding surface microplate. The mixture was incubated at room temperature for 3 min to permit any contaminating adenine, AMP, ATP or 5′-methylthioadenosine (MTA) to be converted to a stable background light signal as measured in the kinetic acquisition mode of the luminometer for 3 min. DNMT was added to give a final volume of 50 μL. After 3 min, the luminescent signal was measured for the following 3 min. […] Initial rates were calculated by subtracting the background rate from that obtained after DNMT addition. Initial rates were fitted to the Morrison equation for tight binding substrates with the exception of data obtained while using M.SssI CpG methyltransferase which were fit to the Michaelis-Menten equation. The Morrison equation was used as high enzyme concentrations were necessary and it could no longer be assumed that free substrate concentration was equal to total substrate concentration. The kinetic parameters Km and Vmax were obtained from these fits after converting the luminescent rate (RLU/s) to an enzymatic rate (pmol AdoHcy/h) using the AdoHcy standard curve. The AdoHcy standard curve was constructed by mixing 25 μL of DNMT assay buffer containing varied concentrations of AdoHcy with 25 μL of continuous assay buffer, incubating for several minutes, and then measuring the luminescence of each sample in the discontinuous acquisition mode of the luminometer. Values were background corrected using a mixture containing no AdoHcy.

AdoMet and poly(dIdC) [2] = experiment: discontinuous luciferase-linked AdoHcy assay of DNMT1 rate; settings: 258 nM DNMT1, 682 nM AdoMet
Procedure: DNMT1 Rate Measurement using Discontinuous Luciferase Assay. DNMT1 was added to a solution of 682 nM AdoMet and 1 μg poly(dIdC) in DNMT assay buffer to a concentration of 258 nM in 300 μL total volume which had been equilibrated to 22° C. or 37° C. A control reaction containing no DNMT1 was also performed at 37° C. 15 μL aliquots of the reaction were quenched with 5 μL of 100 mM HCl at 2 min intervals from 2 to 10 min in triplicate. These were neutralized with 5 μL of 100 mM KOH and were mixed with 25 μL of 2×AdoHcy to ATP conversion buffer and incubated at room temperature for several minutes. 20 μL of each mixture were then mixed with 80 μL of ATPlite in a 96-well non-binding surface microplate. These mixtures were incubated at room temperature for several minutes and their luminescence was measured in the single measurement mode of the luminometer. […]
Initial reaction rates for human DNMT1 were measured both at room temperature and at 37° C. […] After incubation at room temperature for ˜3 min, the luminescence of each sample was measured and an initial rate plot was constructed (FIG. 5A). Initial rates measured in RLU/s were converted to units of pmol/h with an AdoHcy standard curve constructed under the same assay conditions (Table 2). […] The discontinuous rates were readily measured even at low AdoMet concentrations, and the assay is suitable for automated screening. […]

[3] = tested on: [methyl-3H]AdoMet and poly(dIdC); experiment: radiometric filter paper assay of DNMT1 rate; settings: 258 nM DNMT1, 672 nM [methyl-3H]AdoMet
Procedure: DNMT1 Rate Measurement using Radiometric Assay. The same two reactions were prepared as above for the discontinuous luciferase assay with the exception that 672 nM S-adenosyl-1-[methyl-^3H]methionine was used in place of non-radioactive AdoMet. 15 μL aliquots were removed from each reaction in triplicate at 2 min intervals from 2 to 8 min and spotted on 2.3 cm diameter Whatman DE81 filter paper circles which were allowed to dry for 30 min. The circles were washed with 0.2 M NH4HCO3 (4×2 mL), water (4×2 mL), and absolute ethanol (1×2 mL); each wash lasted 5 min before decanting the liquid. Circles were then dried for 1 h, then placed in scintillation vials and covered with 10 mL Betaplate Scint scintillation fluid. Radioactivity was measured on a Tricarb scintillation counter and background was corrected with a no-enzyme control. A conversion factor of 12 CPM/fmol was used.
Parallel reactions were performed with 672 nM [methyl-^3H]AdoMet to compare the initial rates from the luciferase assay with those obtained from the radiometric filter paper assay (4, 5). Reactions were limited to approximately 700 nM AdoMet because of the concentration of the [methyl/-^3H]AdoMet stock solution. The luciferase-linked assays were performed at the same AdoMet concentration. […] The dried circles were analyzed for radioactivity in a scintillation counter. […]

| activity of catalytic domain alone (initial reaction rates) (AdoMet and poly(dIdC) [1]) | Substance | Initial rate (AdoMet and poly(dIdC) [1]; continuous assay, 258 nM DNMT1, 682 nM AdoMet, 1 μg poly(dIdC) per 50 μL) | Vmax (AdoMet and poly(dIdC) [1]; room temperature) | kcat (AdoMet and poly(dIdC) [1]; room temperature) | Km (AdoMet and poly(dIdC) [1]; room temperature, 1 μg poly(dIdC), value as printed in the text, read-out: Km for AdoMet) | Km (AdoMet and poly(dIdC) [1]; room temperature, near saturating AdoMet: 35 μM for DNMT1, 10 μM for CD-DNMT3a/3b complexes with DNMT3L, read-out: Km DNA (poly(dIdC))) | Km (AdoMet and poly(dIdC) [1]; room temperature, near saturating poly(dIdC), dIdC base pair concentration 16.4 μM, read-out: Km AdoMet) | Initial rate (AdoMet and poly(dIdC) [2]; 22° C. (room temperature)) | Initial rate (AdoMet and poly(dIdC) [2]; 37° C.) | Initial rate ([3]; 22° C.) | Initial rate ([3]; 37° C.) |
| --- | --- | --- | --- | --- | --- | --- | --- | --- | --- | --- | --- |
| low activity | CD-DNMT3a: 286 amino acid C-terminal catalytic domain of human DNMT3a (residues 627-912), His6 tagged |  |  |  |  |  |  |  |  |  |  |
| low activity | CD-DNMT3b: 286 amino acid C-terminal catalytic domain of human DNMT3b (residues 568-853), His6 tagged |  |  |  |  |  |  |  |  |  |  |
|  | DNMT1: full-length human DNA (cytosine 5)-methyltransferase 1, N-terminal His6 tag, expressed in SF9 cells | 30 pmol/h and 30.1 pmol/h | 726 ± 75 pmol/h | 0.00778 ± 0.00083 s⁻¹ and 0.00781 s⁻¹ | 2.7 ± 0.7 µM | 0.84 µM and 0.837 µM | 2.66 ± 0.75 µM | 6.3 pmol/h and 6.26 pmol/h | 7.5 pmol/h and 7.52 pmol/h | 11.6 pmol/h | 13.0 pmol/h |
